*1 amine or outer side, *2 acyl side, *3 side chain or, on linkers, in order; H or OH if unused. Where a SMILES comes first, the peptide text is derived from it. Bridges are numbered along the chain shown (N, C = ends). Roman numbers before positions name the chains, in order. [ ]: non-standard residue; d: D form. Actinocin(9to1) = Cc1c2oc3c(C)ccc(C(=O)[*:1])c3nc-2c(C(=O)[*:2])c(N)c1=O; NMeV = CN[C@H](C(=O)O)C(C)C; Sar = CNCC(=O)O

In the assay the test system is HeLa cells. Kind of assay: Parkin colocalization with mitochondria scored by confocal microscopy. Format: cell-based. The following applies: for effect on CCCP-induced Parkin recruitment to mitochondria: HeLa cells expressing YFP-Parkin, added together with CCCP; for spontaneous translocation of mutant YFP-Parkin to mitochondria: without CCCP; for recruitment of mutant YFP-Parkin to depolarized mitochondria: CCCP 1 hr. Here is the method: Cultured cells seeded in borosilicate chamber slides (Thermo Fisher Scientific) were transfected or cotransfected with YFP-Parkin, ECFP-Parkin, mCherry-Parkin, DsRed-Mito (Clontech Laboratories, Inc.), pcDNA3.1 (Invitrogen), vMIA, and/or Drp1K38A constructs using Fugene 6 (Roche). Parkin-myc was a gift from M. Cookson (National Institutes of Health, Bethesda, Md.). Cells were fixed 12-24 hours after transfection with 4% paraformaldehyde in PBS. Cells were stained with following primary antibodies: mouse monoclonal cytochrome c (BD), rabbit polyclonal Tom20 (Santa Cruz Biotechnology, Inc.), mouse monoclonal Parkin PRK8 (Santa Cruz Biotechnology, Inc.), rabbit polyclonal PMP70 (Invitrogen), and/or mouse monoclonal TRAP1 (Abcam); and with the following secondary antibodies: mouse and/or rabbit Alexa 488, 594, and 633 (Invitrogen). For assessment of mitochondrial membrane potential, cells were pulsed with 50 nM Mito-Tracker red (Invitrogen) for 15 min, washed, and incubated for an additional 10 minutes before fixation or imaging. For assessment of cell metabolic potential, cell nuclei were stained with Hoechst 33342 (Invitrogen).
Fixed cells and live cells in the FLIP assay were imaged using an inverted microscope (LSM510 Meta; Carl Zeiss, Inc.) with a 63×/1.4 oil DIC Plan Apo objective at 25° C. and 37° C., respectively. For the FLIP assay, a bleach region of interest (ROI) occupying approximately one eighth of the cell was positioned over a relatively mitochondria-free portion of the cytosol. Cells were alternately bleached (488 nm using a 30-mW argon laser at 75% power and 100% transmission for 150 iterations) and imaged (488 nm at 75% power and 2% transmission) for 10 minutes (—60 cycles over the length of the experiment). Two channel prebleach and postbleach images were obtained with 488 and 594 lasers to assess the position of mitochondria before and after bleaching. Circular ROIs with diameters of ˜1 and 5 μm, respectively, were placed over the mitochondria and cytosol of the target cell, and an ROI of 10 μm was placed over the control cell. Imaging of YFP-Parkin translocation in live HeLa cells was performed on a live cell imager system (UltraView LCI; PerkinElmer) at 35° C. with a 100×/1.45 α-Plan-Fluor objective.
Image contrast and brightness were adjusted in Photoshop (Adobe). Colocalization was assessed with line scans using MetaMorph (MDS Analytical Technologies). For analysis of mitochondrial membrane potential in cells, mitochondrial voxels in each image (the cytochrome c channel threshold was ≧400 au) were segregated into Parkin-positive (the YFP-Parkin channel threshold was ≧1,100 au) or Parkin-negative subsets, and MitoTracker intensity for each voxel was measured using Volocity software (Improvision). For each cell, the mean MitoTracker intensity per voxel was calculated for the Parkin-positive and Parkin-negative subsets. The difference in mean Mito-Tracker intensity between the Parkin-positive and Parkin-negative subsets was calculated using a paired t test. Western blotting HeLa cells stably expressing YFP-Parkin, HEK293 cells, and rat cortical neurons 2 days in vitro were harvested and fractionated as described previously (Karbowski et al., J. Cell Biol. 178: 71-84, 2007). Samples were run on SDS-PAGE and immunoblotted with the following antibodies: polyclonal rabbit anti-GFP (Invitrogen), mouse monoclonal anti-Parkin (PRK8), and mouse monoclonal anti-Porin 31HL (EMD).
Confocal microscopy of fixed samples, scoring of Parkin recruitment and Parkininduced mitophagy, and live cell imaging were performed as described previously (Narendra (2008) J Cell Biol 183: 795-803). Experiments in Mfn1/2 null cells were performed as described previously with minor modifications.
Confocal microscopy of fixed samples, scoring of Parkin recruitment and Parkin-induced mitophagy, and live cell imageing were performed as described previously (Narendra (2008) J Cell Biol 183: 795-803). […]

With `Cc1c2oc3c(C)ccc(C(=O)N[C@@H]4C(=O)N[C@H](C(C)C)C(=O)N5CCC[C@H]5C(=O)N(C)CC(=O)N(C)[C@@H](C(C)C)C(=O)O[C@@H]4C)c3nc-2c(C(=O)N[C@@H]2C(=O)N[C@H](C(C)C)C(=O)N3CCC[C@H]3C(=O)N(C)CC(=O)N(C)[C@@H](C(C)C)C(=O)O[C@@H]2C)c(N)c1=O` [actinomycin D, reference compound] (I: T[dV]P[Sar][NMeV] / II: T[dV]P[Sar][NMeV]; ester I:1-I:C, II:1-II:C; linker I:N-II:N via Actinocin(9to1)), the “effect on CCCP-induced Parkin recruitment to mitochondria” value (from here on “effect”) was “modest effect”.
`CC[C@H]1/C=C/C=C/C[C@@H](C)[C@H](O)[C@@](C)(O)C(=O)[C@@H](C)[C@H](O)[C@@H](C)C(=O)[C@@H](C)[C@H](O)[C@@H](C)/C=C/C(=O)O[C@@H]2[C@H](C)[C@H](CC1)O[C@]1(CC[C@H](C)[C@H](C[C@@H](C)O)O1)[C@H]2C` [oligomycin, reference compound]: the “effect” value is given as “not inhibited”. Moreover, the “YFP-Parkin colocalization with mitochondria, % of cells” value (HeLa cells, 10 μM CCCP+10 μM oligomycin, 1 hour) was found to be 77.35±7.64%.
For the molecule `CC(=O)N[C@@H](CS)C(=O)O` [N-acetyl-cysteine, reference compound], the “effect” value is “not blocked”.

B1: PINK1-YFP: YFP fused to PINK1 (protein, UniProt Q9BXM7 78-581, looked up)
Serine/threonine-protein …: AARLQRQFVVRAWGCAGPCGRAVFLAFGLGLGLIEEKQAESRRAVSACQEIQAIFTQKSKPGPDPLDTRRLQGFRLEEYLIGQSIGKGCSAAVYEATMPTLPQNLEVTKSTGLLPGRGPGTSAPGEGQERAPGAPAFPLAIKMMWNISAGSSSEAILNTMSQELVPASRVALAGEYGAVTYRKSKRGPKQLAPHPNIIRVLRAFTSSVPLLPGALVDYPDVLPSRLHPEGLGHGRTLFLVMKNYPCTLRQYLCVNTPSPRLAAMMLLQLLEGVDHLVQQGIAHRDLKSDNILVELDPDGCPWLVIADFGCCLADESIGLQLPFSSWYVDRGGNGCLMAPEVSTARPGPRAVIDYSKADAWAVGAIAYEIFGLVNPFYGQGKAHLESRSYQEAQLPALPESVPPDVRQLVRALLQREASKRPSARVAANVLHLSLWGEHILALKNLKLDKMVGWLLQQSAATLLANRLTEKCCVETKMKMLFLANLECETLCQAALLLCSWRAAL
modifications: YFP fusion
As for B1, the “cells with mCherry-Parkin recruited to mitochondria” value (HeLa, co-expression, absence of CCCP) amounted to 57.9±1.8%.

B2: T175E: phosphomimetic YFP-Parkin mutant (protein, UniProt O60260 1-465, looked up, variant T175E)
E3 ubiquitin-protein ligase …: MIVFVRFNSSHGFPVEVDSDTSIFQLKEVVAKRQGVPADQLRVIFAGKELRNDWTVQNCDLDQQSIVHIVQRPWRKGQEMNATGGDDPRNAAGGCEREPQSLTRVDLSSSVLPGDSVGLAVILHTDSRKDSPPAGSPAGRSIYNSFYVYCKGPCQRVQPGKLRVQCSTCRQATLELTQGPSCWDDVLIPNRMSGECQSPHCPGTSAEFFFKCGAHPTSDKETSVALHLIATNSRNITCITCTDVRSPVLVFQCNSRHVICLDCFHLYCVTRLNDRQFVHDPQLGYSLPCVAGCPNSLIKELHHFRILGEEQYNRYQQYGAEECVLQMGGVLCPRPGCGAGLLPEPDQRKVTCEGGNGLGCGFAFCRECKEAYHEGECSAVFEASGTTTQAYRVDERAAEQARWEAASKETIKKTTKPCPRCHVPVEKNGGCMHMKCPQPQCRLEWCWNCGCEWNRVCMGDHWFDV
modifications: YFP fusion
notes: phosphomimetic YFP-Parkin mutant
For B2, for the setting “HeLa”, the “spontaneous translocation of mutant YFP-Parkin to mitochondria” value (“spontaneous translocation” for short) is reported as “did not translocate to mitochondria spontaneously”.

B3: I44A: YFP-Parkin with engineered UBL mutation (protein, UniProt O60260 1-465, looked up, variant I44A)
E3 ubiquitin-protein ligase …: MIVFVRFNSSHGFPVEVDSDTSIFQLKEVVAKRQGVPADQLRVAFAGKELRNDWTVQNCDLDQQSIVHIVQRPWRKGQEMNATGGDDPRNAAGGCEREPQSLTRVDLSSSVLPGDSVGLAVILHTDSRKDSPPAGSPAGRSIYNSFYVYCKGPCQRVQPGKLRVQCSTCRQATLTLTQGPSCWDDVLIPNRMSGECQSPHCPGTSAEFFFKCGAHPTSDKETSVALHLIATNSRNITCITCTDVRSPVLVFQCNSRHVICLDCFHLYCVTRLNDRQFVHDPQLGYSLPCVAGCPNSLIKELHHFRILGEEQYNRYQQYGAEECVLQMGGVLCPRPGCGAGLLPEPDQRKVTCEGGNGLGCGFAFCRECKEAYHEGECSAVFEASGTTTQAYRVDERAAEQARWEAASKETIKKTTKPCPRCHVPVEKNGGCMHMKCPQPQCRLEWCWNCGCEWNRVCMGDHWFDV
modifications: YFP fusion
notes: YFP-Parkin with engineered UBL mutation
As to B3, the “recruitment of mutant YFP-Parkin to depolarized mitochondria” value (HeLa) is “moderate deficit”.

B4: C212Y: YFP-Parkin patient mutation in conserved RING-like region (protein, UniProt O60260 1-465, looked up, variant C212Y)
E3 ubiquitin-protein ligase …: MIVFVRFNSSHGFPVEVDSDTSIFQLKEVVAKRQGVPADQLRVIFAGKELRNDWTVQNCDLDQQSIVHIVQRPWRKGQEMNATGGDDPRNAAGGCEREPQSLTRVDLSSSVLPGDSVGLAVILHTDSRKDSPPAGSPAGRSIYNSFYVYCKGPCQRVQPGKLRVQCSTCRQATLTLTQGPSCWDDVLIPNRMSGECQSPHCPGTSAEFFFKYGAHPTSDKETSVALHLIATNSRNITCITCTDVRSPVLVFQCNSRHVICLDCFHLYCVTRLNDRQFVHDPQLGYSLPCVAGCPNSLIKELHHFRILGEEQYNRYQQYGAEECVLQMGGVLCPRPGCGAGLLPEPDQRKVTCEGGNGLGCGFAFCRECKEAYHEGECSAVFEASGTTTQAYRVDERAAEQARWEAASKETIKKTTKPCPRCHVPVEKNGGCMHMKCPQPQCRLEWCWNCGCEWNRVCMGDHWFDV
modifications: N-terminal YFP fusion
notes: YFP-Parkin patient mutation in conserved RING-like region
In the case of B4, the “recruitment of mutant YFP-Parkin to depolarized mitochondria” value (HeLa) is listed as “blocked”.

B5: T217E: phosphomimetic YFP-Parkin mutant (protein, UniProt O60260 1-465, looked up, variant T217E)
E3 ubiquitin-protein ligase …: MIVFVRFNSSHGFPVEVDSDTSIFQLKEVVAKRQGVPADQLRVIFAGKELRNDWTVQNCDLDQQSIVHIVQRPWRKGQEMNATGGDDPRNAAGGCEREPQSLTRVDLSSSVLPGDSVGLAVILHTDSRKDSPPAGSPAGRSIYNSFYVYCKGPCQRVQPGKLRVQCSTCRQATLTLTQGPSCWDDVLIPNRMSGECQSPHCPGTSAEFFFKCGAHPESDKETSVALHLIATNSRNITCITCTDVRSPVLVFQCNSRHVICLDCFHLYCVTRLNDRQFVHDPQLGYSLPCVAGCPNSLIKELHHFRILGEEQYNRYQQYGAEECVLQMGGVLCPRPGCGAGLLPEPDQRKVTCEGGNGLGCGFAFCRECKEAYHEGECSAVFEASGTTTQAYRVDERAAEQARWEAASKETIKKTTKPCPRCHVPVEKNGGCMHMKCPQPQCRLEWCWNCGCEWNRVCMGDHWFDV
modifications: YFP fusion
notes: as for B2
On to B5, for which, under “HeLa”, the “spontaneous translocation” value is reported as “did not translocate to mitochondria spontaneously”.

B6: T175, 217E: double phosphomimetic YFP-Parkin mutant (protein, UniProt O60260 1-465, looked up, variant T175E T217E)
E3 ubiquitin-protein ligase …: MIVFVRFNSSHGFPVEVDSDTSIFQLKEVVAKRQGVPADQLRVIFAGKELRNDWTVQNCDLDQQSIVHIVQRPWRKGQEMNATGGDDPRNAAGGCEREPQSLTRVDLSSSVLPGDSVGLAVILHTDSRKDSPPAGSPAGRSIYNSFYVYCKGPCQRVQPGKLRVQCSTCRQATLELTQGPSCWDDVLIPNRMSGECQSPHCPGTSAEFFFKCGAHPESDKETSVALHLIATNSRNITCITCTDVRSPVLVFQCNSRHVICLDCFHLYCVTRLNDRQFVHDPQLGYSLPCVAGCPNSLIKELHHFRILGEEQYNRYQQYGAEECVLQMGGVLCPRPGCGAGLLPEPDQRKVTCEGGNGLGCGFAFCRECKEAYHEGECSAVFEASGTTTQAYRVDERAAEQARWEAASKETIKKTTKPCPRCHVPVEKNGGCMHMKCPQPQCRLEWCWNCGCEWNRVCMGDHWFDV
modifications: YFP fusion
notes: double phosphomimetic YFP-Parkin mutant
Regarding B6, the “spontaneous translocation” value (HeLa) is reported as “did not translocate to mitochondria spontaneously”.

These data come from patent US20120277286A1, “COMPOSITIONS AND METHODS FOR THE TREATMENT OR PREVENTION OF MITOCHONDRIAL DISEASES” (The Government of the USA, as represented by the Secretary, …, priority 2009, published 2012).
